Test results from the supplement of paper PMC10724198.
± gives the standard deviation of the averaged measurements.

Test system: Saccharomyces cerevisiae
Assay: protein stability index of tFT-peptide fusion (C-terminal peptide) (PSI (0-1 scale)); higher = more stable (slower turnover)
Conditions: genetic background: doa10 deletion; temperature: 30 C
Method: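 MPS profiling in S. cerevisiae of the tFT-X12 degron library: putative degron peptides plus stable controls, 12 aa, fused to the C-terminus of a sfGFP-mCherry timer. Cells are FACS-sorted into 8 mCherry/sfGFP bins and deep-sequenced. PSI runs from 0 (unstable) to 1 (stable). Backgrounds are wild type, das1Δ and doa10Δ at 30 °C, and wild type, das1Δ, cdc34-1 and cdc53-1 at 37 °C; 2-3 technical replicates each.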
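Also: PSI is a weighted mean of sequencing reads over stability bins, variants kept only with over 10 reads, mCherry proximal and sfGFP distal, peptide attached via GGGS linker.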

First: GVVWPLGWVWVE
Second: GWRFCVFIYVHR
The protein stability index of the first is higher: 0.368 ± 0.014 for the first, 0.213 ± 0.018 for the second.

First: GWVVVVCGVCCG
Second: GYSMPVSFFFAL
The protein stability index of the first is lower: 0.167 ± 0.0077 for the first, 0.201 ± 0.011 for the second.

Compared with HFASPPAPRSNL, HFLLAFMLCFGQ is lower in protein stability index: 0.785 ± 0.032 for the first, 0.336 ± 0.011 for the second.

Going from HLILWLFFVIVF to HLRWYITGIVWF, the protein stability index rises from 0.237 ± 0.012 to 0.311 ± 0.019.

First: HPRPRPPPLPPP
Second: HRARILLIRICP
The protein stability index of the first is higher: 0.544 ± 0.0083 for the first, 0.5034 ± 0.0046 for the second.

First: HRFCAPSLSASD
Second: HVLALIFLYIPD
The protein stability index of the first is higher: 0.665 ± 0.024 for the first, 0.317 ± 0.021 for the second.

First: HWVRLSSLAFVS
Second: IACISCLLCVVV
The protein stability index of the first is lower: 0.202 ± 0.022 for the first, 0.479 ± 0.022 for the second.

IEVACLLTAFCD and IFCRCNSTVLLI are within error of each other in protein stability index: 0.282 ± 0.043 for the first, 0.365 ± 0.055 for the second.

Compared with IFFYQLYVDRLC, IFSGCRIALSVF is higher in protein stability index: 0.0857 ± 0.012 for the first, 0.104 ± 0.0034 for the second.

Going from IFSTQMVRFSLL to IFVFVSFPSCVL, the protein stability index rises from 0.261 ± 0.0058 to 0.35 ± 0.0042.

Going from ILFWSLLVSTIR to ILRAGITYVYAV, the protein stability index rises from 0.137 ± 0.017 to 0.264 ± 0.0082.

Going from ILVFHFWPFLVR to IPGGRPLLVEVR, the protein stability index falls from 0.418 ± 0.027 to 0.216 ± 0.0041.

Compared with IRHALHFRVVAV, IRWCLVSVFYVV is lower in protein stability index: 0.3943 ± 0.0036 for the first, 0.0753 ± 0.012 for the second.

Compared with ISAVLFFLYLSF, IVVSSRFLGFFC is lower in protein stability index: 0.459 ± 0.035 for the first, 0.0947 ± 0.012 for the second.

Compared with IWRGGSAVPMIC, IYTLIINKSKAQ is higher in protein stability index: 0.167 ± 0.0098 for the first, 0.282 ± 0.024 for the second.

Compared with KDIFQIYTLYVF, KFWVVLIEIKYH is lower in protein stability index: 0.277 ± 0.0099 for the first, 0.0681 ± 0.015 for the second.

Work on KGSKGELGVHVG yielded a protein stability index of 0.628 ± 0.023.

Same assay, conditions: genetic background: wild type; temperature: 30 C

Going from GVVWPLGWVWVE to GWRFCVFIYVHR, the protein stability index falls from 0.421 ± 0.025 to 0.107 ± 0.015.

Compared with GWVVVVCGVCCG, GYSMPVSFFFAL is higher in protein stability index: 0.196 ± 0.024 for the first, 0.24 ± 0.017 for the second.

Going from HFASPPAPRSNL to HFLLAFMLCFGQ, the protein stability index falls from 0.785 ± 0.032 to 0.356 ± 0.021.

First: HLILWLFFVIVF
Second: HLRWYITGIVWF
The protein stability index of the first is lower: 0.186 ± 0.012 for the first, 0.359 ± 0.087 for the second.

Going from HPRPRPPPLPPP to HRARILLIRICP, the protein stability index falls from 0.487 ± 0.03 to 0.42 ± 0.032.

Going from HRFCAPSLSASD to HVLALIFLYIPD, the protein stability index falls from 0.666 ± 0.012 to 0.355 ± 0.019.

Going from HWVRLSSLAFVS to IACISCLLCVVV, the protein stability index rises from 0.183 ± 0.014 to 0.504 ± 0.0075.

First: IEVACLLTAFCD
Second: IFCRCNSTVLLI
The protein stability index of the first is lower: 0.266 ± 0.033 for the first, 0.37 ± 0.018 for the second.

Compared with IFFYQLYVDRLC, IFSGCRIALSVF is higher in protein stability index: 0.0803 ± 0.01 for the first, 0.116 ± 0.01 for the second.

Going from IFSTQMVRFSLL to IFVFVSFPSCVL, the protein stability index rises from 0.272 ± 0.017 to 0.399 ± 0.026.

Compared with ILFWSLLVSTIR, ILRAGITYVYAV is higher in protein stability index: 0.149 ± 0.035 for the first, 0.296 ± 0.016 for the second.

First: ILVFHFWPFLVR
Second: IPGGRPLLVEVR
The protein stability index of the first is higher: 0.35 ± 0.017 for the first, 0.264 ± 0.033 for the second.

First: IRHALHFRVVAV
Second: IRWCLVSVFYVV
The protein stability index of the first is higher: 0.419 ± 0.013 for the first, 0.0978 ± 0.02 for the second.

Going from ISAVLFFLYLSF to IVVSSRFLGFFC, the protein stability index falls from 0.246 ± 0.017 to 0.102 ± 0.012.

Compared with IWRGGSAVPMIC, IYTLIINKSKAQ is higher in protein stability index: 0.195 ± 0.023 for the first, 0.362 ± 0.11 for the second.

Going from KDIFQIYTLYVF to KFWVVLIEIKYH, the protein stability index falls from 0.3 ± 0.022 to 0.0691 ± 0.036.

KGSKGELGVHVG was tested, and the protein stability index was 0.634 ± 0.021.

Same assay, conditions: genetic background: wild type; temperature: 37 C

Compared with GVVWPLGWVWVE, GWRFCVFIYVHR is lower in protein stability index: 0.615 ± 0.0074 for the first, 0.186 ± 0.0085 for the second.

Going from GWVVVVCGVCCG to GYSMPVSFFFAL, the protein stability index rises from 0.28 ± 0.012 to 0.453 ± 0.014.

Compared with HFASPPAPRSNL, HFLLAFMLCFGQ is lower in protein stability index: 0.792 ± 0.014 for the first, 0.476 ± 0.024 for the second.

First: HLILWLFFVIVF
Second: HLRWYITGIVWF
The protein stability index of the first is lower: 0.271 ± 0.0074 for the first, 0.543 ± 0.017 for the second.

Compared with HPRPRPPPLPPP, HRARILLIRICP is higher in protein stability index: 0.4943 ± 0.0044 for the first, 0.585 ± 0.029 for the second.

First: HRFCAPSLSASD
Second: HVLALIFLYIPD
The protein stability index of the first is higher: 0.696 ± 0.0086 for the first, 0.501 ± 0.0067 for the second.

Compared with HWVRLSSLAFVS, IACISCLLCVVV is higher in protein stability index: 0.1895 ± 0.00075 for the first, 0.589 ± 0.0073 for the second.

Going from IEVACLLTAFCD to IFCRCNSTVLLI, the protein stability index rises from 0.209 ± 0.0052 to 0.522 ± 0.021.

IFFYQLYVDRLC and IFSGCRIALSVF are within error of each other in protein stability index: 0.0746 ± 0.0054 for the first, 0.0944 ± 0.039 for the second.

First: IFSTQMVRFSLL
Second: IFVFVSFPSCVL
The protein stability index of the first is lower: 0.422 ± 0.018 for the first, 0.568 ± 0.03 for the second.

Going from ILFWSLLVSTIR to ILRAGITYVYAV, the protein stability index rises from 0.266 ± 0.004 to 0.493 ± 0.013.

First: ILVFHFWPFLVR
Second: IPGGRPLLVEVR
The protein stability index of the first is higher: 0.503 ± 0.017 for the first, 0.439 ± 0.015 for the second.

First: IRHALHFRVVAV
Second: IRWCLVSVFYVV
The protein stability index of the first is higher: 0.5286 ± 0.0022 for the first, 0.13554 ± 0.00011 for the second.

First: ISAVLFFLYLSF
Second: IVVSSRFLGFFC
The protein stability index of the first is higher: 0.272 ± 0.009 for the first, 0.18 ± 0.0083 for the second.

Going from IWRGGSAVPMIC to IYTLIINKSKAQ, the protein stability index rises from 0.351 ± 0.02 to 0.524 ± 0.017.

Compared with KDIFQIYTLYVF, KFWVVLIEIKYH is lower in protein stability index: 0.467 ± 0.012 for the first, 0.1043 ± 0.00085 for the second.

For KGSKGELGVHVG, the protein stability index was 0.6889 ± 0.0015.

Test system: Saccharomyces cerevisiae
Assay: as above
Conditions: genetic background: wild type; temperature: 30 C

First: GVVWPLGWVWVE
Second: GWRFCVFIYVHR
The protein stability index of the first is higher: 0.527 ± 0.05 for the first, 0.179 ± 0.042 for the second.

First: GWVVVVCGVCCG
Second: GYSMPVSFFFAL
The protein stability index of the first is lower: 0.285 ± 0.011 for the first, 0.356 ± 0.0092 for the second.

Going from HFASPPAPRSNL to HFLLAFMLCFGQ, the protein stability index falls from 0.765 ± 0.0023 to 0.466 ± 0.044.

HLILWLFFVIVF and HLRWYITGIVWF are within error of each other in protein stability index: 0.304 ± 0.23 for the first, 0.4216 ± 0.00048 for the second.

Going from HPRPRPPPLPPP to HRARILLIRICP, the protein stability index falls from 0.508 ± 0.032 to 0.415 ± 0.017.

Compared with HRFCAPSLSASD, HVLALIFLYIPD is lower in protein stability index: 0.697 ± 0.062 for the first, 0.4163 ± 0.0012 for the second.

First: HWVRLSSLAFVS
Second: IACISCLLCVVV
The protein stability index of the first is lower: 0.176 ± 0.01 for the first, 0.508 ± 0.015 for the second.

Compared with IEVACLLTAFCD, IFCRCNSTVLLI is higher in protein stability index: 0.251 ± 0.027 for the first, 0.451 ± 0.024 for the second.

IFFYQLYVDRLC and IFSGCRIALSVF are within error of each other in protein stability index: 0.151 ± 0.059 for the first, 0.181 ± 0.0085 for the second.

Compared with IFSTQMVRFSLL, IFVFVSFPSCVL is higher in protein stability index: 0.362 ± 0.019 for the first, 0.468 ± 0.012 for the second.

First: ILFWSLLVSTIR
Second: ILRAGITYVYAV
The protein stability index of the first is lower: 0.177 ± 0.082 for the first, 0.399 ± 0.04 for the second.

ILVFHFWPFLVR and IPGGRPLLVEVR are the same in protein stability index: 0.426 ± 0.04 for the first, 0.426 ± 0.035 for the second.

Compared with IRHALHFRVVAV, IRWCLVSVFYVV is lower in protein stability index: 0.48 ± 0.0076 for the first, 0.192 ± 0.038 for the second.

Going from ISAVLFFLYLSF to IVVSSRFLGFFC, the protein stability index falls from 0.308 ± 0.025 to 0.2 ± 0.0025.

Compared with IWRGGSAVPMIC, IYTLIINKSKAQ is higher in protein stability index: 0.267 ± 0.058 for the first, 0.429 ± 0.041 for the second.

Going from KDIFQIYTLYVF to KFWVVLIEIKYH, the protein stability index falls from 0.39 ± 0.034 to 0.172 ± 0.0091.

KGSKGELGVHVG showed a protein stability index of 0.671 ± 0.34.
